Experimental data from PMC5360445, “SMOC can act as both an antagonist and an expander of BMP signaling” (eLife, 2017).
Blank lines part the entries; values can stand above or below the molecule they belong to.

What was measured:
[1] = target: XSMOC-1∆EC (XSMOC-1 lacking the EC domain) (Xenopus); test: SEC; HiLoad Superdex-200 PG, 20 mM Tris/HCl pH 7.5, 300 mM NaCl, 2 mM CaCl2, 10% glycerol; proteins refolded in the presence of 2 mM CaCl2; molecular weights calculated from elution
[2] = target: recombinant mature XSMOC-1 (Xenopus SMOC-1) (Xenopus); test: SEC; XSMOC-1 refolded in the presence of 2 mM CaCl2, then dialysed in the presence of 10.5 mM EDTA
[3] = target: recombinant mature XSMOC-1 (Xenopus SMOC-1) (Xenopus); test: SEC; HiLoad Superdex-200 PG, 20 mM Tris/HCl pH 7.5, 300 mM NaCl, 2 mM CaCl2, 10% glycerol; proteins refolded in the presence of 2 mM CaCl2; molecular weights calculated from elution
[4] = target: recombinant mature XSMOC-1 (Xenopus SMOC-1) (Xenopus); test: not stated; data not shown; in the presence of 50 mM EDTA and 1 mM nitriloacetic acid
[5] = target: the molecule itself; test: SEC; HiLoad Superdex-200 PG, 20 mM Tris/HCl pH 7.5, 300 mM NaCl, 2 mM CaCl2, 10% glycerol; proteins refolded in the presence of 2 mM CaCl2; molecular weights calculated from elution

stoichiometry N [1]: 2
Molecule: XSMOC-1∆EC (XSMOC-1 lacking the EC domain) (domain or fragment)

stoichiometry N [2]: 2
stoichiometry N [3]: 2
stoichiometry N [4]: 2
Molecule: recombinant mature XSMOC-1 (Xenopus SMOC-1) (natural protein)

B1: human SMOC-1 (natural protein, UniProt Q9H4F8 27-434, looked up)
chain: HRTTGPRFLISDRDPQCNLHCSRTQPKPICASDGRSYESMCEYQRAKCRDPTLGVVHRGRCKDAGQSKCRLERAQALEQAKKPQEAVFVPECGEDGSFTQVQCHTYTGYCWCVTPDGKPISGSSVQNKTPVCSGSVTDKPLSQGNSGRKDDGSKPTPTMETQPVFDGDEITAPTLWIKHLVIKDSKLNNTNIRNSEKVYSCDQERQSALEEAQQNPREGIVIPECAPGGLYKPVQCHQSTGYCWCVLVDTGRPLPGTSTRYVMPSCESDARAKTTEADDPFKDRELPGCPEGKKMEFITSLLDALTTDMVQAINSAAPTGGGRFSEPDPSHTLEERVVHWYFSQLDSNSSNDINKREMKPFKRYVKKKAKPKKCARRFTDYCDLNKDKVISLPELKGCLGVSKEGRLV
notes: human SMOC-1, construct pET28-SMOC-1-HT of Novinec et al., 2008; expected monomeric size 46.6 kDa; probably the protein without its signal peptide; also called hSMOC-1; pET28-SMOC-1-HT
stoichiometry N [5]: 2
